# Starred links: 1 amine or outer side, 2 acyl side, 3 side chain; linkers in the order of their positions; H or OH if unused. Positions of bridges follow the written chain, without caps; N, C: chain ends. Non-standard residues stand in square brackets, D forms with d. Primed or numbered codes have the meaning given here. PyrS2″ = (S)-3-amino-1-((pent-4-en-1-yloxy)carbonyl)pyrrolidine-3-carboxylic acid (stapling residue), C=CCCCOC(=O)N1CC[C@@](N[*:1])(C(=O)[*:2])C1; MePpzAsn = (S)-2-amino-4-(4-methylpiperazin-1-yl)-4-oxobutanoic acid, CN1CCN(C(=O)C[C@H](N[*:1])C(=O)[*:2])CC1; F2PipNva = (S)-2-amino-5-(4,4-difluoropiperidin-1-yl)pentanoic acid, O=C([C@H](CCCN1CCC(F)(F)CC1)N[*:1])[*:2]; MorphAsn = (S)-2-amino-4-morpholino-4-oxobutanoic acid, O=C(C[C@H](N[*:1])C(=O)[*:2])N1CCOCC1; B5(3) = 2,2-bis(4-pentenyl)glycine (stitching residue), C=CCCCC(CCCC=C)(N[*:1])C(=O)[*:2]; B5 = 2-amino-2-(pent-4-en-1-yl)hept-6-enoic acid, C=CCCCC(CCCC=C)(N[*:1])C(=O)[*:2]; Phe(4-(3-Py)) = N[C@@H](Cc1ccc(-c2cccnc2)cc1)C(=O)O; Nva(5-morpholino) = N[C@@H](CCCN1CCOCC1)C(=O)O; Ala(4-thiazolyl) = N[C@@H](Cc1cscn1)C(=O)O; Phe(2-Cl) = N[C@@H](Cc1ccccc1Cl)C(=O)O; Phe(2-OMe) = COc1ccccc1C[C@H](N)C(=O)O; 1Nal = N[C@@H](Cc1cccc2ccccc12)C(=O)O; 2Nal = N[C@@H](Cc1ccc2ccccc2c1)C(=O)O; Phe(2-F) = N[C@@H](Cc1ccccc1F)C(=O)O; Bta = N[C@@H](Cc1csc2ccccc12)C(=O)O; αAllylPro = C=CC[C@@]1(C(=O)O)CCCN1; tBuAla = CC(C)(C)C[C@H](N)C(=O)O; 3Thi = N[C@@H](Cc1ccsc1)C(=O)O; Cha = N[C@@H](CC1CCCCC1)C(=O)O; S8 = C=CCCCCCC[C@](C)(N)C(=O)O
# T1: B-cat-Halo (beta-catenin HaloTag fusion construct expressed in HEK293 cells) (UniProt P35222 1-781)
# T1 sequence (looked up): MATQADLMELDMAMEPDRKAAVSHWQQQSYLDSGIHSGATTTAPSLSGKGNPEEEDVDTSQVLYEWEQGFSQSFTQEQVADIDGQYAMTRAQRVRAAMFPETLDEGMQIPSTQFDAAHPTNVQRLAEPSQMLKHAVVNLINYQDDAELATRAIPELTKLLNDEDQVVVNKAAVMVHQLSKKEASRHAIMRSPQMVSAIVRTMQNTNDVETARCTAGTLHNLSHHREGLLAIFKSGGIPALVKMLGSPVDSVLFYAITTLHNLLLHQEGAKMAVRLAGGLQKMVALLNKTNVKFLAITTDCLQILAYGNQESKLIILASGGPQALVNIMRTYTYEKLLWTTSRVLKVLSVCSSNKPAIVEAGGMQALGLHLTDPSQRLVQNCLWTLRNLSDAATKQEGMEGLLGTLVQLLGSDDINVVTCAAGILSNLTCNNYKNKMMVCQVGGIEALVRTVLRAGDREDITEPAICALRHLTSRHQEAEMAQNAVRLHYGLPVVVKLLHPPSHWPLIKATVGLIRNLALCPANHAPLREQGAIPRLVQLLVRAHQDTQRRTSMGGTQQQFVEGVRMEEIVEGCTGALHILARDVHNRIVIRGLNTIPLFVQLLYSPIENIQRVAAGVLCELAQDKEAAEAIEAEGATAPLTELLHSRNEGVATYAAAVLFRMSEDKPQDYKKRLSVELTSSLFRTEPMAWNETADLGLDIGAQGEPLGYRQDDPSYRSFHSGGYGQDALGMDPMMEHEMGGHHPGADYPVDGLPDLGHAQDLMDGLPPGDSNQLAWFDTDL
# T2: B-cat-Halo (beta-catenin HaloTag construct expressed in HEK293 cells) (UniProt P35222 1-781)
# T2 sequence (looked up): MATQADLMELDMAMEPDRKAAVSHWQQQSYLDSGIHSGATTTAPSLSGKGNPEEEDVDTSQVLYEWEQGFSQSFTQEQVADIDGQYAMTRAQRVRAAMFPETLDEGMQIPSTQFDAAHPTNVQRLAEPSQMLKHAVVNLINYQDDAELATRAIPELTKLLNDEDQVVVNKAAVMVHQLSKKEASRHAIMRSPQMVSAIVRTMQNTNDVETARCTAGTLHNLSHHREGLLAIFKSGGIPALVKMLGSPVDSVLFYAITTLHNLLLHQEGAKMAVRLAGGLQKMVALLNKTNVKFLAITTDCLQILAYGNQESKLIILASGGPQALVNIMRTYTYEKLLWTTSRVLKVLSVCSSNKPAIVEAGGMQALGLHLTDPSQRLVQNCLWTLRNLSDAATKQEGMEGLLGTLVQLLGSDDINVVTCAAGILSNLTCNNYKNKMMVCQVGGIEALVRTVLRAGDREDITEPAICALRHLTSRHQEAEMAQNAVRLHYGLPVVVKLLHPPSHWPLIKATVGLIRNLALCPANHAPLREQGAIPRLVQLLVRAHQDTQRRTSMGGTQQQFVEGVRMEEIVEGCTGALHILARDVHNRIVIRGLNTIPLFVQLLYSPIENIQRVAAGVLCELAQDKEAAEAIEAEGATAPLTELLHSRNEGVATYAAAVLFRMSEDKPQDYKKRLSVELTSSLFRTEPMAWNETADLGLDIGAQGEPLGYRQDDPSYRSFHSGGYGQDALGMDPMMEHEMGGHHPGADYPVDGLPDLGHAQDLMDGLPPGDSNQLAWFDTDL
# T3: B-cat-Halo (beta-catenin HaloTag fusion expressed in HEK293 cells) (UniProt P35222 1-781, HaloTag labelled with HaloTag NanoBRET 618 Ligand)
# T3 sequence (looked up): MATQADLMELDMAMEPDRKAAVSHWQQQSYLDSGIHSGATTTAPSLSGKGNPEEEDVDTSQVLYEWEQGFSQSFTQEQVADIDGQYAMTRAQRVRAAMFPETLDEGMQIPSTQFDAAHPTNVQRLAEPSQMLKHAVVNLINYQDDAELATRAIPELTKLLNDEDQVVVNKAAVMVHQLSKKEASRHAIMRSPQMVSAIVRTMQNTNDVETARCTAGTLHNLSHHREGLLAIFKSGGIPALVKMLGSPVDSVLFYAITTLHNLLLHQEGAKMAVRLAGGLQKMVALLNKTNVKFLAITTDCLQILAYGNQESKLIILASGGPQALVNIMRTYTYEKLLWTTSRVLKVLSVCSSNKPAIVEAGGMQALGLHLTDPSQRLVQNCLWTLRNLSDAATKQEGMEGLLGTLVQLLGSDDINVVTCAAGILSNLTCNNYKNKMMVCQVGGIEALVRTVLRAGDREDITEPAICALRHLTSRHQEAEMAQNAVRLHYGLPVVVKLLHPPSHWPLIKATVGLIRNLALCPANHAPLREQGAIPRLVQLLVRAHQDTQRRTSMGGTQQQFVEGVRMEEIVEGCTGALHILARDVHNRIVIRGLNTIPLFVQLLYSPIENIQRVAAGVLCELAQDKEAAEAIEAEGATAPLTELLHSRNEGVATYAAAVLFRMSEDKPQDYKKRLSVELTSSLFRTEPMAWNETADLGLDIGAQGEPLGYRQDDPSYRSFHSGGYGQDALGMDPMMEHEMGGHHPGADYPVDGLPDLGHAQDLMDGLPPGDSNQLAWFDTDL
# B1: I-1101 (peptide)
# peptide: Ac-[αAllylPro]D[tBuAla][B5(3)]DDAAFS[PyrS2″][Phe(2-F)][Bta]S-NH2
# modifications: staple 1-4, 4-11
# B2: I-1111 (peptide)
# peptide: Ac-[αAllylPro]D[2Nal][B5(3)]DDAAFL[PyrS2″][2C1F][Bta]Q-NH2
# modifications: staple 1-4, 4-11
# B3: I-1110 (peptide)
# peptide: Ac-[αAllylPro]D[1Nal][B5(3)]DDAAFL[PyrS2″][Phe(2-Cl)][Bta]Q-NH2
# modifications: staple 1-4, 4-11
# B4: I-1100 (peptide)
# peptide: Ac-[αAllylPro]D[Cha][B5(3)]DDAAFS[PyrS2″]F[Bta]S-NH2
# modifications: staple 1-4, 4-11
# B5: I-1106 (peptide)
# peptide: Ac-[αAllylPro]D[tBuAla][B5(3)]DDAAFS[PyrS2″][Cha][Bta]S-NH2
# modifications: staple 1-4, 4-11
# B6: I-1103 (peptide)
# peptide: Ac-[αAllylPro]D[tBuAla][B5(3)]DDAAFS[PyrS2″][Phe(2-OMe)][Bta]S-NH2
# modifications: staple 1-4, 4-11
# B7: I-1114 (peptide)
# peptide: Ac-[αAllylPro]D[1Nal][B5(3)]DDAAFT[PyrS2″][Phe(2-Cl)][Bta]S-NH2
# modifications: staple 1-4, 4-11
# B8: I-1109 (peptide)
# peptide: Ac-[αAllylPro]D[2Nal][B5(3)]DDAAFS[PyrS2″][Phe(2-Cl)][Bta]Q-NH2
# modifications: staple 1-4, 4-11
# B9: I-1102 (peptide)
# peptide: Ac-[αAllylPro]D[Cha][B5(3)]DDAAFS[PyrS2″][Phe(2-F)][Bta]S-NH2
# modifications: staple 1-4, 4-11
# B10: I-1105 (peptide)
# peptide: Ac-[αAllylPro]D[tBuAla][B5(3)]DDAA[Cha]S[PyrS2″]F[Bta]S-NH2
# modifications: staple 1-4, 4-11
# B11: I-1099 (peptide)
# peptide: Ac-[αAllylPro]D[tBuAla][B5(3)]DDAAFS[PyrS2″]F[Bta]S-NH2
# modifications: staple 1-4, 4-11
# B12: I-1107 (peptide)
# peptide: Ac-[αAllylPro]D[Cha][B5(3)]DDAAF[Cha][PyrS2″][Phe(2-Cl)][Bta]Q-NH2
# modifications: staple 1-4, 4-11
# B13: I-1096 (peptide)
# peptide: Ac-[αAllylPro]D[tBuAla][B5(3)]DEAAFL[S8][Phe(2-Cl)][Bta]Q-NH2
# modifications: staple 1-4, 4-11
# B14: I-1108 (peptide)
# peptide: Ac-[αAllylPro]D[1Nal][B5(3)]DDAAFS[PyrS2″][Phe(2-Cl)][Bta]Q-NH2
# modifications: staple 1-4, 4-11
# B15: I-1104 (peptide)
# peptide: Ac-[αAllylPro]D[Cha][B5(3)]DDAAFS[PyrS2″][Phe(2-OMe)][Bta]S-NH2
# modifications: staple 1-4, 4-11
# B16: I-1097 (peptide)
# peptide: Ac-[αAllylPro]D[tBuAla][B5(3)]DDAAFL[S8][Phe(2-Cl)][Bta][dT]-NH2
# modifications: staple 1-4, 4-11
# B17: I-1095 (peptide)
# peptide: Ac-[αAllylPro]D[tBuAla][B5(3)]DDAAFL[S8][Phe(2-Cl)][Bta]Q-NH2
# modifications: staple 1-4, 4-11
# B18: I-813 (peptide)
# peptide: Ac-[αAllylPro]D[tBuAla][B5]DDAAFN[PyrS2″][3Thi][Bta][dH]-NH2
# modifications: staple 1-4, 4-11
# B19: I-811 (peptide)
# peptide: Ac-[αAllylPro]D[tBuAla][B5(3)]DDAAFN[PyrS2″][Ala(4-thiazolyl)][Bta]Q-NH2
# modifications: staple 1-4, 4-11
# B20: I-812 (peptide)
# peptide: Ac-[αAllylPro]D[tBuAla][B5(3)]DDAA[Ala(4-thiazolyl)]N[PyrS2″][3Thi][Bta]Q-NH2
# modifications: staple 1-4, 4-11
# B21: I-810 (peptide)
# peptide: Ac-[αAllylPro]D[tBuAla][B5(3)]DDAAFT[PyrS2″][3Thi][Bta]H-NH2
# modifications: staple 1-4, 4-11
# B22: I-816 (peptide)
# peptide: Ac-[αAllylPro]D[tBuAla][B5]DDAAFN[PyrS2″][3Thi][Bta]N-NH2
# modifications: staple 1-4, 4-11
# B23: I-807 (peptide)
# peptide: Ac-[αAllylPro]D[tBuAla][B5(3)]DDAAFF[PyrS2″][3Thi][Bta]Q-NH2
# modifications: staple 1-4, 4-11
# B24: I-808 (peptide)
# peptide: Ac-[αAllylPro]D[tBuAla][B5(3)]DDAAFF[PyrS2″][3Thi][Bta]H-NH2
# modifications: staple 1-4, 4-11
# B25: I-1492 (peptide)
# peptide: Ac-[αAllylPro]D[tBuAla][B5(3)]DDAAFL[PyrS2″][3Thi][Bta]N-NH2
# modifications: staple 1-4, 4-11
# B26: I-1485 (peptide)
# peptide: Ac-[αAllylPro]D[tBuAla][B5(3)]DDAAF[Nva(5-morpholino)][PyrS2″][3Thi][Bta]Q-NH2
# modifications: staple 1-4, 4-11
# B27: I-1488 (peptide)
# peptide: Ac-[αAllylPro]D[tBuAla][B5(3)]DDAAF[MePpzAsn][PyrS2″][3Thi][Bta]Q-NH2
# modifications: staple 1-4, 4-11
# B28: I-1484 (peptide)
# peptide: Ac-[αAllylPro]D[tBuAla][B5(3)]DD[MePpzAsn]AFL[PyrS2″][3Thi][Bta]Q-NH2
# modifications: staple 1-4, 4-11
# B29: I-1487 (peptide)
# peptide: Ac-[αAllylPro]D[tBuAla][B5(3)]DDAAF[MorphAsn][PyrS2″][3Thi][Bta]Q-NH2
# modifications: staple 1-4, 4-11
# B30: I-1489 (peptide)
# peptide: Ac-[αAllylPro]D[tBuAla][B5(3)]DD[Phe(4-(3-Py))]AFL[PyrS2″]F[Bta]Q-NH2
# modifications: staple 1-4, 4-11
# B31: I-1486 (peptide)
# peptide: Ac-[αAllylPro]D[tBuAla][B5(3)]DDAAF[F2PipNva][PyrS2″][3Thi][Bta]Q-NH2
# modifications: staple 1-4, 4-11
# Target: T1, B-cat-Halo (beta-catenin HaloTag fusion …)
# Test: cell-based or functional assay
row,NanoBRET Abs IC50,Binder
1,27 µM,B1
2,> 20 µM,B2
3,> 20 µM,B3
4,24.3 µM,B4
5,> 20 µM,B5
6,16.7 µM,B6
7,> 20 µM,B7
8,> 20 µM,B8
9,27.2 µM,B9
10,> 20 µM,B10
11,9 µM,B11
12,11.8 µM,B12
13,8.6 µM,B13
14,> 20 µM,B14
15,17.7 µM,B15
16,> 20 µM,B16
17,> 20 µM,B17

# Target: T2, B-cat-Halo (beta-catenin HaloTag …)
# Test: cell-based or functional assay
row,NanoBRET Abs IC50,Binder
1,20.9 µM,B18
2,> 20 µM,B19
3,48.6 µM,B20
4,18 µM,B21
5,13.7 µM,B22
6,3.2 µM,B23
7,4.4 µM,B24

# Target: T3, B-cat-Halo (beta-catenin HaloTag fusion …)
# Test: cell-based or functional assay
row,NanoBRET Abs IC50,Binder
1,7.3 µM,B25
2,25.8 µM,B26
3,30.3 µM,B27
4,> 20 µM,B28
5,21.5 µM,B29
6,9.2 µM,B30
7,17.9 µM,B31

# Source: US20240116985A1 (published 2024)
